Biological target: T1, MRM3 (human (endogenous in HEK293)), Q9HC36
T1 chain: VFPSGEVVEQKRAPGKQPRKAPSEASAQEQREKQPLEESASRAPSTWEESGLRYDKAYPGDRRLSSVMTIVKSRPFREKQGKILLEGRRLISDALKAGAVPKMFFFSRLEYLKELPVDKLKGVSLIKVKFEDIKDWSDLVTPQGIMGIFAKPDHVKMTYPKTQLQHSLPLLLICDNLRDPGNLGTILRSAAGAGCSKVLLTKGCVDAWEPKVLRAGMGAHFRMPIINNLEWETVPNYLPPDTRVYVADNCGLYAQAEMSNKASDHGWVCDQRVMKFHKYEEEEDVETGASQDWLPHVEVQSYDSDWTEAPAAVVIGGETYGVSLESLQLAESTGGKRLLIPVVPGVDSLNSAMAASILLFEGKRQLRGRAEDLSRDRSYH
Assay: cryo-EM structure; native 39S pre-mitoribosomal particles isolated by anti-Flag affinity purification (MALSU1 or GTPBP10 bait; state 1 also with particles from a uL17 bait) from HEK293 cells; single-particle analysis, average resolutions between 3.1 Å and 5.7 Å; factors fitted as rigid-body homology models or crystal structures
Conditions: remark: other sources report otherwise

- stoichiometry N: 2
B1: MRM3, Q9HC36 41-420 (natural protein)
chain: T1 chain

From article PMC8316566
